Measured values reported in US10933119B2, “Aortopathy” (University of Leicester, priority 2015, dated 2021).

What was measured:
[1] = test system: leukocytes in peripheral blood; assay: Number of leukocytes in peripheral blood after GM-CSF blockade by neutralizing antibody; assay type: in vivo; design: Lymphocytes in peripheral blood: unit not given here; conditions: KLF6fl/fl;LysM Cre mice, CaCl2 + AngII
Description: (§1) To induce aortic dissection/intramural hematoma, peri-aortic application of CaCl2 was done to the abdominal aorta, followed by two-week infusion of AngII (2000 ng kg−1 min−1) (40). In detail, mice were anesthetized and underwent laparotomy at 10- to 13-weeks of age. The abdominal aorta between the renal arteries and bifurcation of the iliac arteries was isolated from the surrounding retroperitoneal structure, and 0.5 M CaCl2 was applied to the external surface of the infrarenal aorta. NaCl (0.9%) was substituted for CaCl2 in sham control mice. The aorta was rinsed with 0.9% sterile saline after 15 min and the incision was closed.
(§2) Wild-type mice were injected intraperitoneally with 110 mg kg−1 of clodronate liposomes or equal volume of PBS liposomes 2 days prior and 7 days after induction of aortic dissection. Neutralizing antibody against GM-CSF (300 μg, R&D systems) or control anti-rat IgG antibody (Equitech Bio) was administered every other day by intraperitoneal injection. Recombinant murine GM-CSF (10, 50, 100 μg kg−1 day−1, PeproTech) was administered for two weeks or four weeks after induction of aortic dissection.
Aortas were minced into 3- to 4-mm pieces and placed in 1 ml digestion solution containing collagenase type II (1.25 mg ml−1, Worthington) and porcine pancreatic elastase (50 μg ml−1, Worthington) in base solution of Accumax (Innovative Cell Technologies). Aortic tissue was digested at room temperature with agitation for 1 h. After digestion, cells were washed in FACS buffer (5% FCS in PBS) at 2000 rpm for 5 min. Aortic macrophages were isolated using CD11b microbeads according to the manufacturer's instructions (Miltenyi Biotec). Spleen was homogenized and passed through a cell strainer to obtain single-cell suspensions. Bone marrow-derived cells were taken from the femur and tibia of 5- to 6-week-old mice. Blood was collected in heparin-coated vials and then 1.2% dextran was added for 45 min at room temperature. Counting of peripheral leukocytes was done by automated hematology analyzer (XT-2000i, Sysmex). […]

[2] = Plasma GM-CSF concentration (ELISA) after recombinant GM-CSF infusion; assay type: in vivo; conditions: wild-type mice
Description: as §2
Plasma levels of IL-6, MCP-1 and GM-CSF in mice or in humans with or without aortic dissection/intramural hematoma were assayed with commercially available quantikine ELISA kits (R&D systems) according to the manufacturer's instructions. Sera of healthy volunteers and of patients with aortic aneurysm, coronary artery disease or with aortic dissection were obtained with informed consent under a protocol approved by the University of Tokyo hospital research ethics committee.

wild-type mice = assay: Murine aortic dissection/intramural hematoma model with recombinant GM-CSF administration; assay type: in vivo
Description: as §1, §2
Aortas from mice were embedded in paraffin then 5-μm-thick serial sections were prepared for Elastic Von Gienson (EVG) and hematoxylin/eosin (HE) staining. Digital images of EVG-stained aortas with reference scale were used for absolute measurement of diameter. Human aortic tissue was obtained from patients undergoing surgical aortic repair with informed consent under a protocol approved by the University of Tokyo hospital research ethics committee. Paraffin-embedded sections were taken from the aorta for EVG staining and immunohistochemistry. […]

[3] = test system: leukocytes in peripheral blood; assay: Number of leukocytes in peripheral blood after GM-CSF administration; assay type: in vivo, mice; design: Lymphocytes in peripheral blood: unit not given here; conditions: for Lymphocytes in peripheral blood / Monocytes in peripheral blood / Neutrophils in peripheral blood: wild type mice
Description: as §1, §2
Aortas were minced into 3- to 4-mm pieces and placed in 1 ml digestion solution containing collagenase type II (1.25 mg ml−1, Worthington) and porcine pancreatic elastase (50 μg ml−1, Worthington) in base solution of Accumax (Innovative Cell Technologies). Aortic tissue was digested at room temperature with agitation for 1 h. After digestion, cells were washed in FACS buffer (5% FCS in PBS) at 2000 rpm for 5 min. Aortic macrophages were isolated using CD11b microbeads according to the manufacturer's instructions (Miltenyi Biotec). Spleen was homogenized and passed through a cell strainer to obtain single-cell suspensions. Bone marrow-derived cells were taken from the femur and tibia of 5- to 6-week-old mice. Blood was collected in heparin-coated vials and then 1.2% dextran was added for 45 min at room temperature. Counting of peripheral leukocytes was done by automated hematology analyzer (XT-2000i, Sysmex). Neutrophils were isolated from bone marrow using a neurophil isolation kit according to the manufacturer's instructions (Miltenyi Biotec). From single-cell suspensions of spleen, bone marrow and blood, erythrocytes were lysed using ACK lysis buffer for 5, 3 and 2 min on ice, respectively. Cells were centrifuged at 2000 rpm for 5 min to remove the ACK lysis buffer, then the single-cell suspensions were resuspended and washed in FACS buffer, followed by centrifugation at 2000 rpm for 5 min.

B1: GM-CSF: Recombinant murine GM-CSF (PeproTech), granulocyte macrophage colony-stimulating factor (protein, UniProt P01587 18-141, looked up)
Granulocyte-macrophage …: APTRSPITVTRPWKHVEAIKEALNLLDDMPVTLNEEVEVVSNEFSFKKLTCVQTRLKIFEQGLRGNFTKLKGALNMTASYYQTYCPPTPETDCETQVTTYADFIDSLKTFLTDIPFECKKPGQK
- Lymphocytes in peripheral blood [1]: 1843.3 ± 311.1
- Monocytes in peripheral blood [1]: 82.5 ± 12.5 cells/µL
- Neutrophils in peripheral blood [1]: 786 ± 118 cells/µL
- increased circulating levels of GM-CSF ([2]; GM-CSF alone, 2 weeks infusion): at least 180.9 fold
- circulating levels of GM-CSF ([2]; combination of GM-CSF with CaCl2 + AngII compared to each alone): markedly elevated
- aortic dissection/intramural hematoma (wild-type mice; wild-type mice subjected to aortic inflammation (CaCl2+AngII) plus GM-CSF): caused
- death of mice (wild-type mice; wild-type mice, GM-CSF with CaCl2+AngII): died from aortic rupture
- aortic dissection/intramural hematoma (wild-type mice; wild-type mice, administration of GM-CSF alone): did not develop
- number of neutrophils in peripheral blood ([3]; 14 days of GM-CSF administration): no difference
- number of neutrophils in peripheral blood ([3]; GM-CSF administration, early phase): markedly increased
- number of circulating lymphocytes ([3]; GM-CSF administration, early phase (5 days) or developed phase (14 days)): did not change
- Lymphocytes in peripheral blood ([3]; CaCl2 + AngII, 5 days): 1803.3 ± 124.0
- Monocytes in peripheral blood ([3]; CaCl2 + AngII, 5 days): 387 ± 112 cells/µL
- Neutrophils in peripheral blood ([3]; CaCl2 + AngII, 5 days): 1690 ± 147 cells/µL
- Lymphocytes in peripheral blood ([3]; CaCl2 + AngII, 14 days): 1667.2 ± 371.3
- Monocytes in peripheral blood ([3]; CaCl2 + AngII, 14 days): 310 ± 45.9 cells/µL
- Neutrophils in peripheral blood ([3]; CaCl2 + AngII, 14 days): 1050 ± 259 cells/µL
- Lymphocytes in peripheral blood ([3]; Sham, 5 days): 3150.0 ± 234.5
- Monocytes in peripheral blood ([3]; Sham, 5 days): 353 ± 103 cells/µL
- Neutrophils in peripheral blood ([3]; Sham, 5 days): 2540 ± 454 cells/µL
- Lymphocytes in peripheral blood ([3]; Sham, 14 days): 3052.0 ± 420.3
- Monocytes in peripheral blood ([3]; Sham, 14 days): 295 ± 66.2 cells/µL
- Neutrophils in peripheral blood ([3]; Sham, 14 days): 976 ± 117 cells/µL
